{"source": "patent US8530213B2", "about": "“Compositions and methods for using NADH oxidases” (Georgia Tech Research Corporation, priority 2009, dated 2013)", "molecules": {"B1": {"name": "NOX5: NADH oxidase V from Lactobacillus plantarum, wild type, 49 kDa, SEQ ID NO: 1 (protein, listed as Lactobacillus plantarum)", "chain": "MKVIVIGCTHAGTAAVNQILASNPDTEVTIYERNDNVSFLSCGIALYLGGQVADPQGLFYSSPEQLAKLGATVHMQHDVTDVNTDKHEITVTDLKTGESKTDHYDKLVVTTGSWPVIPPIDGIDSPNVYLCKNWTHAQNLWEAAKPAKRVIVIGGGYIGTELVEAYQKQGKEVTLIDGLPRILNKYLDKEFTDRVEQDFVDHGIKMALNQMVQGFSDDGKEVTVKTDKGSYTADMAILCVGFRPNTGLLKGKVDMNANGSIKTNDYMQTSDPDIYGAGDSVAVHYNPTKKDAYIPLATNAVRQGTLVGLNIFKPTRKYMGTQSTSGLMLFGQTIVSSGMTLEHAQAENVPAAAVTFEDNYRPEFMPTTKPVLMQLVYNPETREILGAQFMSEHDVSQSANVISVMIQNHNTIDDLGFVDMFFQPIYDRPFNYLNLLGQAAIAHAAEAVTE"}, "B2": {"name": "G178R/L179R: NADH oxidase derived from Lactobacillus plantarum, G178R/L179R mutant (protein, listed as Lactobacillus plantarum)", "chain": "B1 chain with G178R, L179R"}}, "key": {"[1]": {"molecular_target": "NOX5 (Lactiplantibacillus plantarum, UniProt F9UUC2)", "conditions": "H2O2 up to 200 μM, 30 minutes incubation", "description": "Inhibition effects of NAD^+ and H2O2 were measured by incubating the enzyme with possible inhibitors for 30 minutes before the assay. For NAD^+, 0.2, 0.3, 0.4 and 0.6 mM were chosen and for H2O2, 25, 50, 100 and 200 μM were investigated.\nThe effect of H2O2 was studied with a concentration range up to 200 μM, which would be the total amount produced from a standard assay if the enzyme was a hydrogen peroxide producing NADPH oxidase."}, "[2]": {"test": "pH activity profile", "type": "biochemical", "conditions": "25° C., 100 mM buffers", "description": "(§1) Standard assays were performed at 25° C. in 100 mM TEA buffer (pH 7.5) with 5 mM DTT in cuvettes with either a 1 cm or 1 mm path length, depending on the concentration of substrate. Initial activity was measured by following the absorbance change using a Beckman Coulter DU 800 UV/Vis spectrophotometer at 340 nm. Activity of the enzyme was calculated using an extinction coefficient of NAD(P)H, ε, as 6.22 mM^−1 cm^−1. Unless otherwise noted, a substrate concentration of 0.2 mM NADPH was used for assays. 1 unit (U) of activity is defined as […].\nEnzyme pH activity profiles were obtained at 25° C. using 100 mM buffers with the following salts: sodium citrate from pH 4.0 to pH 6.5; sodium phosphate from pH 6.0 to pH 8.0; TEA from pH 7.0 to pH 8.0; Tris-HCl from pH 7.0 to pH 9.0; glycine from pH 9.0 to pH 10.0."}, "[3]": {"test": "Amplex Red assay of H2O2 produced during turnover", "type": "biochemical", "conditions": "50 mM sodium phosphate buffer (pH 7.4)", "description": "An Amplex Red Hydrogen Peroxide/Peroxidase Assay Kit (Invitrogen) was used to determine the amount of hydrogen peroxide (H2O2) produced during turnover. Various amounts of substrates were reacted and assayed to detect the presence of H2O2. The reactions were carried out in the provided 50 mM sodium phosphate buffer (pH 7.4). Standards for the calibration curve were made with the same reaction buffer.\nTo determine whether NOX5 is a water or hydrogen peroxide producing enzyme, an amplex red assay was performed. The presence of H2O2 can be confirmed by incubating the standard assay mixture with amplex red and peroxidase. Produced resorufin can be detected using a fluorescence spectroscopy analysis."}, "[4]": {"test": "Kinetic parameters of purified NADH oxidases, substrate NADH", "type": "biochemical", "conditions": "purified enzyme, excess of oxygen", "description": "as §1\n[…] This was conducted with an excess of oxygen present in the system. The reaction was initiated by mixing two separate 2× solutions of each the substrate and enzyme. The specific activity was measured, and the kinetic parameters were calculated from that data.\nThe data was fitted with four different models: non-linear Michaelis-Menten, Lineweaver-Burk, Eadie-Hofstee and Hanes. Through non-linear fitting, kcat and KM of the wild type were measured to be 211.6 s^−1 and 50.2 μM, respectively with an R^2 of 0.998. (FIG. 5)."}, "[5]": {"test": "NOX5 mutants assayed at the cell lysate level, NADPH activity", "type": "biochemical", "description": "as §1\n(§2) Single mutations were done on residues G178 and L179 into K, R and K, R, H respectively, and double mutations were also investigated with different combinations of the single mutations. The mutation of G178H was excluded due to the fact that the enzyme would then have two histidines next to each other, creating steric hindrance in the binding pocket. The resulting mutants were expressed on small scale and assayed at the cell lysate level."}, "[6]": {"test": "Total turnover number (TTN), NADH", "type": "biochemical", "design": "key: TTN = change in NAD(P)H concentration / amount of enzyme", "conditions": "for TTN with DTT, NADH: 5 mM DTT, 25° C.; for TTN, NADH: no reducing agents", "description": "(§3) Standard kinetic assays were performed with small amounts of enzyme. Assays were carried out for two to three hours until there was no more enzymatic conversion of the substrate.\nTotal turnover number (TTN) is a measurement of catalyst productivity. For biocatalysts, TTN is defined as the total amount of product produced over the lifetime of an enzyme. […] […] (data not shown).\n(§4) This experiment was repeated to see if the presence of reducing agents had any effect on the total turnover number. The stock solution of enzyme was dialyzed against 250 mL of 10 mM Tris-HCl (pH 7.5) for two hours. The solution was then exchanged and dialyzed for an additional 2 hours. The TTN was then measured with the dialyzed enzyme with and without reducing agents. DTT and β-mercaptoethanol (β-ME) were used at a concentration of 5 mM. The TTN for the sample with no reducing agents, DTT and β-ME were 128,000, 168,000 and 107,000, respectively."}, "[7]": {"test": "NOX5 mutants assayed at the cell lysate level, NADH activity", "type": "biochemical", "description": "as §1, §2"}, "[8]": {"test": "Temperature stability (30 minutes incubation, assayed at 25° C.)", "type": "physicochemical", "description": "Temperature stability was studied by incubating the enzyme at various temperatures for 30 minutes. The enzyme solution was then cooled down and assayed at 25° C. This study covered a temperature range of 15° C. to 55° C."}, "[9]": {"test": "Temperature activity profile", "type": "biochemical", "description": "as §1\nTemperature dependent activity was studied by incubating the enzyme at different temperatures. After one minute of incubation, the standard assay was carried out. A temperature range of 10 to 55° C. was chosen for this study."}, "[10]": {"test": "Total turnover number (TTN), NADPH", "type": "biochemical", "description": "as §3\nTotal turnover number (TTN) is a measurement of catalyst productivity. For biocatalysts, TTN is defined as the total amount of product produced over the lifetime of an enzyme. Calculations of TTN were performed by dividing the change of NADPH concentration by the amount of enzyme that was used for each assay. […] (data not shown).\nas §4"}, "[11]": {"test": "Kinetic parameters of purified NADH oxidases, substrate NADPH", "type": "biochemical", "conditions": "purified enzyme, excess of oxygen", "description": "as §1\nDepending on the enzyme, a substrate concentration range from 1.5 μM up to 984 μM was investigated to determine the kcat and KM of NADPH. This was conducted with an excess of oxygen present in the system. The reaction was initiated by mixing two separate 2× solutions of each the substrate and enzyme. The specific activity was measured, and the kinetic parameters were calculated from that data."}}, "note": "Changes are numbered by the printed parent chain. In names and notes the source's numbering stands.", "data": [{"molecule": "OO", "note": "[H2O2, hydrogen peroxide]", "values": [{"measurement": "change in the initial specific activity of the enzyme", "setting": "[1]", "result": "no change"}]}, {"molecule": "B1", "values": [{"measurement": "pH of maximum activity", "setting": "[2]", "result": 7.5}, {"measurement": "H2O2 produced, ratio of NADH", "setting": "[3]", "result": 2.63, "unit": "%"}, {"measurement": "Km", "setting": "[4]", "result": 50.2, "unit": "µM"}, {"measurement": "kcat, NADH", "setting": "[4]", "result": 211.6, "unit": "s⁻¹"}, {"measurement": "NADPH activity", "setting": "[5]", "result": 0.00, "unit": "U/mg"}, {"measurement": "TTN with DTT, NADH", "setting": "[6]; listed as NOX5 WT", "result": "168,000"}, {"measurement": "TTN with β-mercaptoethanol (β-ME)", "setting": "[6]; 5 mM β-ME, dialyzed enzyme", "result": "107,000"}, {"measurement": "TTN, NADH", "setting": "[6]", "result": "128,000"}, {"measurement": "NADH activity", "setting": "[7]", "result": 10.0, "unit": "U/mg"}, {"measurement": "Enthalpy of deactivation, ΔH", "setting": "[8]", "result": 1.19, "unit": "kcal/mol"}, {"measurement": "activity at 55° C.", "setting": "[8]; 55° C.", "result": "inactive"}, {"measurement": "T50^30, temperature that exhibited half of the original activity", "setting": "[8]; 30 minutes incubation", "result": 45, "unit": "°C"}, {"measurement": "activation energy, Ea", "setting": "[9]; Arrhenius model", "result": 7.82, "unit": "kcal/mol"}, {"measurement": "deactivation energy, Ed", "setting": "[9]; Arrhenius model", "result": -22.4, "unit": "kcal/mol"}, {"measurement": "temperature of maximum instantaneous activity", "setting": "[9]; range 10 to 55° C., one minute of incubation", "result": 40, "unit": "°C"}]}, {"molecule": "B2", "values": [{"measurement": "kcat, NADH", "setting": "[4]", "result": 34.0, "unit": "s⁻¹"}, {"measurement": "NADPH activity", "setting": "[5]", "result": 6.00, "unit": "U/mg"}, {"measurement": "TTN with DTT, NADH", "setting": "[6]", "result": "128,000"}, {"measurement": "TTN, NADH", "setting": "[6]", "result": "108,000"}, {"measurement": "NADH activity", "setting": "[7]", "result": 2.64, "unit": "U/mg"}, {"measurement": "TTN, NADPH", "setting": "[10]; no reducing agents", "result": "105,000"}, {"measurement": "TTN with DTT, NADPH", "setting": "[10]; with DTT", "result": "118,000"}, {"measurement": "Km", "setting": "[11]", "result": 9.76, "unit": "µM"}, {"measurement": "kcat, NADPH", "setting": "[11]", "result": 114.1, "unit": "s⁻¹"}]}]}
